Results from patent US20120108492A1, “LIGAND-SPECIFIC NON-ANTIBODY COMPOUNDS THAT INHIBIT CR2 ACTIVATION AND METHODS OF USE THEREOF” (The Regents of the University of Colorado, priority 2008, published 2012).
Read-outs that look alike come from different tables or passages of the source.

What was measured:
anti-CR2 SCR1-2 mAb 629 = assay: MBP-CR2 SCR1-2-629 mAb ELISA; type: binding; conditions: mutant MBP-CR2 SCR1-2 relative to wild-type; for % 629 mAb Bindng: plate-bound 629 mAb
Excerpt: The excellent correlation observed between our cell-binding studies and the ELISA analyses provides proof-of-principle that the MBP-CR2 SCR1-2 ELISA is an effective means of characterizing CR2-ligand interactions. […] See Asokan et al. (2006) J Immunol 177:383-94; Guthridge et al. (2001) J Immunol 167:5758-66; Young et al. (2007) J Biol Chem 282:36614-36625. […] This epitope overlaps extensively with the binding surface on CR2 described above for EBV gp350, and also with the previously described binding sites for C3dg and C3d. Hannan et al. (2005) J Mol Biol 346:845-58; and Young et al. (2007) J Biol Chem 282:36614-36625.
(§1) After coating, the plates were blocked using 0.1% BSA in a PBS solution, pH 7.4 for one hour at room temperature. The plates were then washed, and incubated with either wild-type or mutant MBP-CR2 SCR1-2, at concentrations ranging from 0.03125-2.0 μg/ml in PBS for one hour at room temperature. After further washing, wild-type or mutant MBP-CR2 binding was detected using commercially available horseradish peroxidase-conjugated anti-MBP mAb (New England Biolabs) according to the manufacturer's instructions.

EBV gp350 [1] = molecular target: T1, EBV gp350 (Epstein-Barr virus, UniProt P03200); assay: MBP-CR2 SCR1-2 mutant-EBV gp350 ELISA; type: binding; design: DNA corresponding to residues 1-470 of EBV gp350/220; E. coli biotin carboxyl carrier protein (BCCP) fragment, residues 70-156; hexa-histidine (C); made in house; host or cells: human embryonic kidney 293f freestyle cells (pSecTag2/Hygro B); conditions: for EBV gp350 binding relative to wild-type CR2: mutant MBP-CR2 SCR1-2
T1 sequence (P03200 1-470): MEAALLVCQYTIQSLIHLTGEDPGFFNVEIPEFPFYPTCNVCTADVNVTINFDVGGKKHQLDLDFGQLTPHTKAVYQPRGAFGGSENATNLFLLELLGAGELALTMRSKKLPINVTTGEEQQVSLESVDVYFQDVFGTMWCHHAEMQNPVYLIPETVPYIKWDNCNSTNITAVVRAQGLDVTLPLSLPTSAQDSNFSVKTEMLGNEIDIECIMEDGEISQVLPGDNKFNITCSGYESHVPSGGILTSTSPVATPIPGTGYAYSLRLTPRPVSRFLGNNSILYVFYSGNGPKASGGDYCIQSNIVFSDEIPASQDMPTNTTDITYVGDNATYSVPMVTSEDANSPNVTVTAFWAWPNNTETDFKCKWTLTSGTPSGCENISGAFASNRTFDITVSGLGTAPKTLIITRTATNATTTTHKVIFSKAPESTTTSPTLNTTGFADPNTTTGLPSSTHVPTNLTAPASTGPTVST
Experimental: See Martin et al. (1991) J Exp Med 174:1299-311; Young et al. (2007) J Biol Chem 282:36614-36625; Guthridge et al. (2001) Biochemistry 40:5931-41; and Sarrias et al. (2001) J Immunol 167:1490-9. […] Young et al. (2007) J Biol Chem 282:36614-36625.
as §1

[2] = test system: anti-CR2 SCR1-2 monoclonal antibody 171; assay: MBP-CR2 SCR1-2-171 mAb ELISA; type: binding; conditions: mutant MBP-CR2 SCR1-2 relative to wild-type; for % 171 mAb Binding: plate-bound 171 mAb
Experimental: See Asokan et al. (2006) J Immunol 177:383-94; Guthridge et al. (2001) J Immunol 167:5758-66; Young et al. (2007) J Biol Chem 282:36614-36625. […] Hannan et al. (2005) J Mol Biol 346:845-58; and Young et al. (2007) J Biol Chem 282:36614-36625.
as §1

EBV gp350 [3] = molecular target: T1, EBV gp350; conditions: previously observed cell-binding study; mutant CR2 relative to wild-type; cited from earlier work

| Molecule | Weighting (629 mAb) (anti-CR2 SCR1-2 mAb 629) | % 629 mAb Bindng (anti-CR2 SCR1-2 mAb 629) | EBV gp350 binding relative to wild-type CR2 (EBV gp350 [1]) | Weighting (171 mAb) [2] | % 171 mAb Binding [2] | EBV gp350 binding (EBV gp350 [3]) | EBV gp350 binding (EBV gp350 [1]; mutant CR2 relative to wild-type CR2) | decrease in EBV gp350 binding (EBV gp350 [1]; reduction relative to wild-type MBP-CR2 SCR1-2) |
| --- | --- | --- | --- | --- | --- | --- | --- | --- |
| S15P: single-site mutant of recombinant MBP-CR2 SCR1-2 (protein, left off: large carriers; small tags and cut ends) ISCGSPPPILNGRIPYYSTPIAVGTVIRYSCSGTFRLIGEKSLLCITKDKVDGTWDKPAPKCEYFNKYSSCPEPIVPGGYKIRGSTPYRHGDSVTFACKTNFSMNGNKSVWCQANNMWGPTRLPTCVSVFPLE | ++++ (++++>90%) | 91.7% | major reduction in EBV gp350 binding | ++++ (++++>90%) | 108.5% | – | – | – |
| L10A: single-site mutant of recombinant MBP-CR2 SCR1-2 (protein, left off: large carriers; small tags and cut ends) ISCGSPPPIANGRISYYSTPIAVGTVIRYSCSGTFRLIGEKSLLCITKDKVDGTWDKPAPKCEYFNKYSSCPEPIVPGGYKIRGSTPYRHGDSVTFACKTNFSMNGNKSVWCQANNMWGPTRLPTCVSVFPLE | ++++ (++++>90%) | 113.2% | failed to inhibit EBV gp350 binding | ++++ (++++>90%) | 94.7% | – | – | – |
| Y16A: single-site mutant of recombinant MBP-CR2 SCR1-2 (protein, left off: large carriers; small tags and cut ends) ISCGSPPPILNGRISAYSTPIAVGTVIRYSCSGTFRLIGEKSLLCITKDKVDGTWDKPAPKCEYFNKYSSCPEPIVPGGYKIRGSTPYRHGDSVTFACKTNFSMNGNKSVWCQANNMWGPTRLPTCVSVFPLE | ++++ (++++>90%) | 154.4% | failed to inhibit EBV gp350 binding | +++ (+++89.9-70%) | 81.4% | 66.7% | 95.1% | – |
| K67A: single-site mutant of recombinant MBP-CR2 SCR1-2 (protein, left off: large carriers; small tags and cut ends) ISCGSPPPILNGRISYYSTPIAVGTVIRYSCSGTFRLIGEKSLLCITKDKVDGTWDKPAPKCEYFNAYSSCPEPIVPGGYKIRGSTPYRHGDSVTFACKTNFSMNGNKSVWCQANNMWGPTRLPTCVSVFPLE | ++++ (++++>90%) | 107.2% | – | +++ (+++89.9-70%) | 87.7% | – | – | approximately 20% |
| R89A: single-site mutant of recombinant MBP-CR2 SCR1-2 (protein, left off: large carriers; small tags and cut ends) ISCGSPPPILNGRISYYSTPIAVGTVIRYSCSGTFRLIGEKSLLCITKDKVDGTWDKPAPKCEYFNKYSSCPEPIVPGGYKIRGSTPYAHGDSVTFACKTNFSMNGNKSVWCQANNMWGPTRLPTCVSVFPLE | +++ (+++89.9-70%) | 87.7% | decreased binding affinities for EBV gp350 | ++++ (++++>90%) | 93.9% | – | – | – |
| R83A: single-site mutant of recombinant MBP-CR2 SCR1-2 (protein, left off: large carriers; small tags and cut ends) ISCGSPPPILNGRISYYSTPIAVGTVIRYSCSGTFRLIGEKSLLCITKDKVDGTWDKPAPKCEYFNKYSSCPEPIVPGGYKIAGSTPYRHGDSVTFACKTNFSMNGNKSVWCQANNMWGPTRLPTCVSVFPLE | ++++ (++++>90%) | 94.4% | decreased binding affinities for EBV gp350 | ++++ (++++>90%) | 96.9% | – | – | – |
